These results are taken from patent US20190202901A1.

Positions count from the first letter of the chain named.

For assay [1], the target named is recombinant human IGF-1R protein (R&D Systems, Cat 391-GR) (human) (UniProt P08069). The assay can be described thus: direct ELISA on rhIGF-1R coating, dose response. A general note: In an ELISA, binding on a coated surface is turned into a signal by an enzyme label.
Assay [2] has the same target. Nature of the assay: direct ELISA, rhIGF-1R coating, antibody at 5 µg/ml.
The target in assay [3] is recombinant murine IGF-1R protein (R&D Systems, Cat 6630-GR/Fc) (murine) (UniProt Q60751). The assay can be described thus: direct ELISA, rmIGF-1R coating, antibody at 5 µg/ml.
The target of assay [4] is recombinant human IGF-1R protein (R&D Systems, Cat 391-GR) (human) (UniProt P08069). Nature of the assay: direct ELISA, rhIGF-1R coated, goat anti-mouse IgG-HRP, TMB, OD 450 nm; Prism sigmoidal dose-response (variable slope) fit.

B1: 816C12 (antibody, V domains shown)
VH: EVQLQQSGPELVKPGASVKMSCKASGHTFTSYVLHWMKRKPGQGLEWIGYINPHNDVTKYNENFKGKATLTSDKYSSTVYMEVSSLTSEDSAVYYCVSTAYYGNGRYFDVWGAGTTVTVSS
VL: DIQMTQTTSSLSASLGDRVTISCRASQDINNYLNWYQQKPDGTVKLLIYYTSRLHSGVSSRFSGSGSGTDYSLTISNLEQEDIATYFCQQGNTLPWTFGGGTKLEIK
As for B1, in assay [1], the EC50 (usually the concentration that produces a half-maximal response) was found to be 0.41 nM. Also, the OD in assay [2] is 2.62 OD 450 nm. In assay [3], the OD amounted to 0.065 OD 450 nm. Further, in assay [4], the BOTTOM (best-fit value) was 0.116 OD (450 nm), the EC50 worked out at 0.417 nM, the LOGEC50 was -9.38 log C [M] and the TOP (best-fit value) is 2.44 OD (450 nm).

B2: 810D12 (antibody, V domains shown)
VH: EVQLQQSGPELVKPGASVKMSCKASGHTFTSYMLHWVKQKPGQGLEWLGFINPYNDVTKYNENFKGKATLTSDKSSSTAYMELNSLTSEDSAVYFCVTTAYYGNGRYFDVWGAGTTVTVSS
VL: B1 VL with N30T, N34T, L46V, H55Y, S59P, T69S, S76N, N92Y, T93S
For the molecule B2, in assay [1], the EC50 was 0.51 nM. For the same molecule, in assay [2], the OD amounted to 2.14 OD 450 nm. For the same molecule, the OD in assay [3] amounted to 1.29 OD 450 nm. Moreover, in assay [4], the BOTTOM (best-fit value) is 0.0807 OD (450 nm), the EC50 is 0.513 nM, the LOGEC50 is -9.29 log C [M] and the TOP (best-fit value) is 2.64 OD (450 nm).
